Here are results for nine molecules from article PMC9595883 (Journal of molecular biology, 2022).

To fix the notation:
T1: Par(1-170) (Staphylococcus aureus plasmid pSK1, UniProt Q9L8I7 1-170)
T1 sequence: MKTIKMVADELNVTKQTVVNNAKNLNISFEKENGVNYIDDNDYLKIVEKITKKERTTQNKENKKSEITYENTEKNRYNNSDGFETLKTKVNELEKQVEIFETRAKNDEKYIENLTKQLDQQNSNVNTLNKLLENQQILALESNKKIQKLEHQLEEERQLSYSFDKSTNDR

B1: pSK1 Par(78–170) (domain or fragment)
chain: NNSDGFETLKTKVNELEKQVEIFETRAKNDEKYIENLTKQLDQQNSNVNTLNKLLENQQILALESNKKIQKLEHQLEEERQLSYSFDKSTNDR
B2: pSK1 Par(1–170) (domain or fragment)
chain: T1 sequence
B3: centromere repeat 2/5/7 (dsDNA)
DNA 1: ATGTTAGGTAGTAAACTA
DNA 2: TAGTTTACTACCTAACAT
B4: centromere repeat 6 (dsDNA)
DNA 1: ATGTTAGGTACTTAGCTA
DNA 2: TAGCTAAGTACCTAACAT
B5: palindromic 18-mer (crystallization site), FP (dsDNA)
DNA 1: ATGTTAGGTACCTAACTA
DNA 2: TAGTTAGGTACCTAACAT
B6: centromere repeat 4 (dsDNA)
DNA 1: ATGTTAGGCGGTAAACTA
DNA 2: TAGTTTACCGCCTAACAT
B7: half site mutant 18-mer (dsDNA)
DNA 1: ATGTTAGGTACCCGACTA
DNA 2: TAGTCGGGTACCTAACAT
B8: centromere repeat 3 (dsDNA)
DNA 1: ATGTTAGGTGGTAAACTA
DNA 2: TAGTTTACCACCTAACAT
B9: centromere repeat 1 (dsDNA)
DNA 1: ATGTTAGGTGCCTAACTA
DNA 2: TAGTTAGGCACCTAACAT

The first series concerns the molecule itself. The experiment in a line: SEC. For orientation: In gel filtration, larger molecules generally elute earlier.
For orientation: stoichiometry N means the number of molecules, sites or subunits per partner or assembly. B1: the “stoichiometry N” value stood at 4.
Still for that read-out and setting: the same measure for B2: 4.

Another series deals with T1, Par(1-170). The experiment in a line: fluorescence polarization. (Polarisation of emitted light reports the rotation of a fluorescent probe.)
As usually defined, the Kd is the concentration at which binding is half-saturated. Molecule B3 displayed a Kd of 66.5 ± 4.9 nM.
On the same count and under the same terms, as for B4, the figure is 90.2 ± 5.6 nM; as for B5, 43.4 ± 1.5 nM.
The same measure, in the same setting: the same measure for B6: 140 ± 10 nM; for B7: 195 ± 10.8 nM; for B8: 62.7 ± 1.3 nM.
Same read-out and setting: the same measure for B9: 67.5 ± 3.2 nM.
